Experimental findings from paper PMC10484670 are described below.

T1: eIF4E (wheat, UniProt P29557 1-215)
T1 sequence: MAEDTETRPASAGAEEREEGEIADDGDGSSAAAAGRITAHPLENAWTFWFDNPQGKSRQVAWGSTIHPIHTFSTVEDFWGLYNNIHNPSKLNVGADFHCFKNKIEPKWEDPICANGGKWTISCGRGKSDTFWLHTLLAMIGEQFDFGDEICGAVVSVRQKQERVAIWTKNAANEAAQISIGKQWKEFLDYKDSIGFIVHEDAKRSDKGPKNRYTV

B1: PEMV2 BL3-6 (crystallization, L1 mutant) (structured_RNA)
RNA: GGUAGAACACGUGGGAUAGGGGAUGACCUUGUCGACCGAAACACGGUCCCCUGCUCCUUCGAGCUGGCAAGGCGCUCACAGGUUCUACC
B2: PEMV2 A23G (structured_RNA)
RNA: GGUAGAACACGUGGGAUAGGGGGUGACCUUGUCGACCGGUUAUCGGUCCCCUGCUCCUUCGAGCUGGCAAGGCGCUCACAGGUUCUAC
B3: PEMV2 C50U:G20A (structured_RNA)
RNA: B2 RNA with G20A, G23A, C50U
B4: PEMV2 U52C:A26G (structured_RNA)
RNA: B2 RNA with G23A, A26G, U52C
B5: PEMV2 G21C (structured_RNA)
RNA: B2 RNA with G21C, G23A
B6: PEMV2 U24C (structured_RNA)
RNA: B2 RNA with G23A, U24C
B7: PEMV2 U52C (structured_RNA)
RNA: B2 RNA with G23A, U52C
B8: PEMV2 C49U:G19A (structured_RNA)
RNA: B2 RNA with G19A, G23A, C49U
B9: PEMV2 U65C (structured_RNA)
RNA: B2 RNA with G23A, U65C
B10: PEMV2 C50U (structured_RNA)
RNA: B2 RNA with G23A, C50U
B11: PEMV2 U17C:A18U (structured_RNA)
RNA: B2 RNA with U17C, A18U, G23A
B12: PEMV2 G21A (structured_RNA)
RNA: B2 RNA with G21A, G23A
B13: PEMV2 C49U (structured_RNA)
RNA: B2 RNA with G23A, C49U

Residue numbers refer to the chain shown, from its start. Numbers in names are those of the source.

The target in the first data set is T1, eIF4E. The data set is described as follows: EMSA.
For the molecule B1, the binding result is listed as “binds”.

Another data set deals with T1, eIF4E. The data set is described as follows: EMSA. This is another data set of the same source.
Consider B2, for which the binding result is reported as “no binding”.
As to B3, the binding result is recorded as “no binding”.
Regarding B4, the binding result is given as “no binding”.
Turning to B5, the binding result is on record as “no binding”.
Turning to B6, the binding result is on record as “no binding”.
On the same count and under the same terms, under B7 stands “no binding”; under B8, “no binding”.
Take B9: the binding result was “no binding”.
Take B10: the binding result is given as “no binding”.
Still for that read-out and setting: under B11 stands “binds”.
For the molecule B12, the binding result is given as “no binding”.
On the same count and under the same terms, in the case of B13 it was “binds”.
